The numbers were not newly measured in article PMC4067134, which cites them from elsewhere.

Series [1] deals with integrin β3 (Homo sapiens) (UniProt P05106).
Series [2] deals with integrin αIIbβ3 (Homo sapiens) (UniProt P08514).

UniProt P05106, sequence (P05106 27-718): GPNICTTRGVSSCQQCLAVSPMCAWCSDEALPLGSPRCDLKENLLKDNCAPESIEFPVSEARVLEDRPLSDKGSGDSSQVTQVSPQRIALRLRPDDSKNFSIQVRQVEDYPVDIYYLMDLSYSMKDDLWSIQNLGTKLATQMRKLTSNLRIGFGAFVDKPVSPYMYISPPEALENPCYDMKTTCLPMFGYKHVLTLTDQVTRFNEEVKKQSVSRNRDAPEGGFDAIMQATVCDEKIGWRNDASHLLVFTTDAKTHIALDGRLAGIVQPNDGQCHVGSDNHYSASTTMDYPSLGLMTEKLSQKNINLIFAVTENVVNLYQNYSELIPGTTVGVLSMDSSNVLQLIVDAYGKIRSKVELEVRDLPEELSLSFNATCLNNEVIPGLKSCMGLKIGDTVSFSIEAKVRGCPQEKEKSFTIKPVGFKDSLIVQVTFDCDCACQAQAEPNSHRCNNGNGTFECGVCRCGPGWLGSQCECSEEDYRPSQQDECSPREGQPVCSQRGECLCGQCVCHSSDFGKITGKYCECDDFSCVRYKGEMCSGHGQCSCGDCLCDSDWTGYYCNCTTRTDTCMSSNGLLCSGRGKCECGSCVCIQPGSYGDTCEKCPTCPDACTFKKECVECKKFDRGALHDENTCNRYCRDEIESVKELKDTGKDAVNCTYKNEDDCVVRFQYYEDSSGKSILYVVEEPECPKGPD

A word on the Kd: it is the free concentration of one partner at which half of the binding sites on the other are occupied at equilibrium, for simple one-to-one binding. For ERp5 (from UniProt Q15084), the values for the Kd in series [1] and in series [2] were 6.9 µM and 7 µM, respectively.
